Experimental findings from the supplement of paper PMC10567573 are described below.

± gives the standard deviation.

The nature of this data set: protein stability index of a GFP-peptide fusion (GPS, HEK-293T) (PSI 1-6); higher = more stable.
The mark [1] stands for this setting: treatment: DMSO, c terminus: a fixed tail appended.
Setting [2] is: treatment: MLN4924 1 uM, 8 h, c terminus: a fixed tail appended.
Where [3] appears, read: treatment: DMSO, c terminus: native.
The mark [4] stands for this setting: treatment: MLN4924 1 uM, 8 h, c terminus: native.
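Further: 24-mer peptide tiles fused after GFP, lentivirally expressed, FACS-sorted into six equal bins by GFP/DsRed ratio, decoded by Illumina sequencing, PSI is the read-weighted mean bin number.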

For the sequence DTSMDGTEPPQNPVTPLGLQNEVP [SERTAD3], the protein stability index under setting [1] amounted to 5.4 ± 0.19 and the protein stability index under setting [2] was 5.38 ± 0.34.

Consider DVALALAALDGGRSLEELTRLAFE [LPCAT4], for which the protein stability index is, setting by setting: under setting [1], 2.06 ± 0.68; under setting [2], 2.12 ± 0.19.

Regarding DVKDKETTENENTKFEVRLLRDPA [CHGB], the protein stability index runs as follows: under setting [1], 4.33 ± 0.41; under setting [2], 4.7 ± 0.3.

For DVTLEASRESSKPRAVLKPRRVCV [PPP2R2C], the protein stability index runs as follows: under setting [1], 3.68 ± 0.1; under setting [2], 3.78 ± 0.21.

Sequence DVVRSLLRRGASVNRTTRTNSTPL [FEM1A] had a protein stability index under setting [1] of 2.75 ± 0.29 and a protein stability index under setting [2] of 2.65 ± 0.27.

In the case of DVYRDGTGVVEFVRKEDMTYAVRK [SRSF1], the protein stability index under setting [1] stood at 3.96 ± 0.26 and the protein stability index under setting [2] was determined as 4.47 ± 0.18.

In the case of DWVPVESLLRPLNSLAALDLSGIQ [ZER1], the protein stability index stood at 2.42 ± 0.61 under setting [1] and 2.41 ± 0.49 under setting [2].

With EAAVEALELLGATYVDKKRDLLGA [FEM1A], the protein stability index is, setting by setting: under setting [1], 3.27 ± 0.31; under setting [2], 3.49 ± 0.21.

EADYEDDSKIAFLMQLQDIQYLTE [IQUB]: the protein stability index worked out at 3.3 ± 0.2 under setting [1] and 3.38 ± 0.57 under setting [2].

In the case of EAFCHANCSGPAPAAKPDPDGGRA [P3H4], the protein stability index under setting [1] was 4.82 ± 0.15 and the protein stability index under setting [2] turned out to be 4.79 ± 0.19.

Turning to EAHFMLQVADINDNPPTFSQVSYF [PCDHGA10], the protein stability index turned out to be 2.34 ± 0.41 under setting [1] and 2.33 ± 0.25 under setting [2].

As to EAINFCRGLGSQASTVTEIVKQQD [ACSBG2], the protein stability index by setting is: under setting [1], 4.12 ± 0.11; under setting [2], 4.11 ± 0.18.

For the sequence EASERFAAGYIQCMHEVHTFVSTC [HES6], the protein stability index was 2.21 ± 0.23 under setting [1] and 2 ± 0.36 under setting [2].

Consider EDHNENGHTPLMEAGSAGHVEVAR [ANKRD17], for which the protein stability index stood at 5.63 ± 0.12 under setting [1] and 5.36 ± 0.12 under setting [2].

Consider EDPSQQFLQQSLERVYSLQHLDPQ [INTS4], for which the protein stability index amounted to 4.18 ± 0.17 under setting [1] and 4.42 ± 0.23 under setting [2].

Take EDQEGSPPETSLPYKWVVEAANLL [MYBL2]: the protein stability index under setting [1] was determined as 3.96 ± 0.18 and the protein stability index under setting [2] came out at 3.915 ± 0.031.

As for EDQGRTRKRKQSGHSPARAGKQRM [DDIT3], the protein stability index by setting is: under setting [1], 4.96 ± 0.27; under setting [2], 4.96 ± 0.089.

As for EDQYQFSYRAALEYLGSFDHYAT [PTPRD], the protein stability index was determined as 2.61 ± 0.49 under setting [3] and 2.69 ± 0.34 under setting [4].

For the sequence EEEPSHVTGREGFPTDAPYPTTLG [ZNF8], the protein stability index by setting is: under setting [1], 5.17 ± 0.14; under setting [2], 5.17 ± 0.14.

As to EEGESLLCLACSAGYYELAQVLLA [ANKRD17], the protein stability index was found to be 2.17 ± 0.4 under setting [1] and 2.39 ± 0.25 under setting [2].

With EEILTLFCGAPPVTPIIVLSIINF [PHTF1], the protein stability index is, setting by setting: under setting [1], 2.84 ± 0.26; under setting [2], 2.97 ± 0.51.

On to EELDGLCFKGELPLRAVHINLEEK [PLEKHN1], for which the protein stability index came out at 4.41 ± 0.26 under setting [1] and 4.44 ± 0.29 under setting [2].

With EELKAELVQLEDEITTLRQVLSAK [TPD52L1], the protein stability index reads like this: under setting [1], 4.34 ± 0.32; under setting [2], 4.22 ± 0.28.

Consider EFYLLELMDCCLIVYHPYRPLLQY [CCNC], for which the protein stability index came out at 3.08 ± 1.3 under setting [1] and 2.98 ± 0.45 under setting [2].

In turn, EGGVLRGSKLEKGHLRGPEIRDWR [ZSWIM9] registered a protein stability index under setting [1] of 3.8 ± 0.2 and a protein stability index under setting [2] of 4.02 ± 0.31.

EGSCYQTFRQYCGAACTCHVRNPL [RNF208]: the protein stability index under setting [1] is 2.4 ± 0.37 and the protein stability index under setting [2] was 2.6 ± 0.2.

As to EGSYRIHVLHHGTGKWYELQDLQV [USP39], the protein stability index stood at 2.73 ± 0.69 under setting [1] and 2.58 ± 0.77 under setting [2].

Consider EHDRETRMQYAPDLMKRLRFALIP [KLHL14], for which the protein stability index reads like this: under setting [1], 2.77 ± 0.26; under setting [2], 2.56 ± 0.16.

As for EHRHLNPDTELKRYFGARAILGEQ [TCF25], the protein stability index was determined as 3.46 ± 0.32 under setting [1] and 3.47 ± 0.54 under setting [2].

EIDRSVENTLLNSQMVSTDNSLSS [MIA2]: the protein stability index came to 4.18 ± 0.35 under setting [1] and 4.67 ± 0.23 under setting [2].

Take EIKSMKKRMSELCIDFNKNLNEDD: the protein stability index under setting [1] was found to be 4.64 ± 0.6.

Consider EILGIEPDREKGFHLDVEDYLSGV [TSN], for which the protein stability index by setting is: under setting [1], 3.27 ± 0.22; under setting [2], 3.45 ± 0.41.

As to EISALNGNRINVPMVRKRSVSNST [DLC1], the protein stability index by setting is: under setting [1], 3.5 ± 0.071; under setting [2], 3.5 ± 0.32.

Turning to EKELISMECYDIYSKTWTKQPDLT [GAN], the protein stability index reads like this: under setting [1], 3.21 ± 0.25; under setting [2], 3.28 ± 0.36.

In the case of EKHPKKPEPQQKAPLVPPPPPPPP [SRPK2], the protein stability index runs as follows: under setting [1], 5.42 ± 0.22; under setting [2], 5.47 ± 0.09.

As for EKPPRPEAKSAQPADGWKGERPRS [GCH1], the protein stability index is, setting by setting: under setting [1], 5.2 ± 0.2; under setting [2], 5.21 ± 0.11.

EKQSRCVNIEWHRFRFGQDQLLLA [WSB1]: the protein stability index is 2.14 ± 0.24 under setting [1] and 2.6 ± 0.42 under setting [2].

On to ELERARELKEKEATLCLEFLLQND [ANKRD44], for which the protein stability index amounted to 3.94 ± 0.2 under setting [1] and 4.13 ± 0.35 under setting [2].

As to ELFDKLSLRFNGRVLFIKDVIGDE [KCTD10], the protein stability index was found to be 2.08 ± 0.22 under setting [1] and 2.82 ± 0.59 under setting [2].

Sequence ELFSYLRNRGRFSSTTGLFYSAEI [PRKX] displayed a protein stability index under setting [1] of 2.36 ± 0.84 and a protein stability index under setting [2] of 2.44 ± 1.3.

For the sequence ELKPEDKDPRDPEESKEPKEEKQR [GNAS], the protein stability index reads like this: under setting [1], 5.22 ± 0.48; under setting [2], 5.7 ± 0.3.

For ELLDEKLLARGTMQPFNYVTLQCL [FEM1A], the protein stability index is, setting by setting: under setting [1], 2.56 ± 0.41; under setting [2], 2.44 ± 0.57.

ELQGLDYCKPTRLDLLLDMPPVSY [SPSB1]: the protein stability index turned out to be 2.31 ± 0.14 under setting [1] and 2.38 ± 0.11 under setting [2].

Consider ELVLRKDCPKIVEPHGKMFNEQTW [ZSCAN9], for which the protein stability index runs as follows: under setting [1], 2.86 ± 0.38; under setting [2], 2.78 ± 0.3.

Consider EMERTQAQLRDAVQSLQLSPRTRG [RASAL3], for which the protein stability index runs as follows: under setting [1], 4.96 ± 0.36; under setting [2], 4.77 ± 0.49.

EMIITKAGRRMFPSYKVKVTGLNP [TBX5]: the protein stability index reads like this: under setting [1], 2.12 ± 0.14; under setting [2], 2.4 ± 0.32.

Turning to ENAQKKRFNQVLKNLLHAEFLRVQ [VPS39], the protein stability index reads like this: under setting [1], 2.73 ± 0.43; under setting [2], 2.29 ± 0.39.

Take ENFEDVGHSTDAREMSKTFIIGEL [CYB5A]: the protein stability index reads like this: under setting [1], 3.95 ± 0.4; under setting [2], 3.89 ± 0.29.

For the sequence ENLFTGEDLDELEEELNTLDLEE [ZC3H15], the protein stability index by setting is: under setting [3], 4.26 ± 0.32; under setting [4], 4.65 ± 0.32.

Turning to ENQSSQAELKEAVEEPSSKDVMEK [CHGA], the protein stability index reads like this: under setting [1], 5.6 ± 0.12; under setting [2], 5.72 ± 0.19.

With EPQGLGYWEAWRHHCQGKDLTEWV [SPACA3], the protein stability index runs as follows: under setting [1], 3.85 ± 0.2; under setting [2], 3.8 ± 0.45.

Regarding EPSRSASEADSEAGELRKPTQEEW [PPEF2], the protein stability index is, setting by setting: under setting [1], 5.68 ± 0.33; under setting [2], 5.81 ± 0.16.

For EQEPELSFLKQKEQLEAEAQALRQ [PBXIP1], the protein stability index amounted to 5.42 ± 0.19 under setting [1] and 5.29 ± 0.21 under setting [2].
